We go through two proteins from patent publication US10465177B2, “Maltooligosyl trehalose trehalohydrolase (MTHase) mutant and application thereof” (Jiangnan University, priority 2018, dated 2019).

Substrate in series [1]: OC[C@H]1O[C@H](O[C@H]2[C@H](O)[C@@H](O)[C@@H](O[C@H]3[C@H](O)[C@@H](O)[C@@H](O[C@H]4[C@H](O)[C@@H](O)[C@@H](O[C@H]5[C@H](O)[C@@H](O)[C@@H](O[C@H]6[C@H](O)[C@@H](O)C(O)O[C@@H]6CO)O[C@@H]5CO)O[C@@H]4CO)O[C@@H]3CO)O[C@@H]2CO)[C@H](O)[C@@H](O)[C@@H]1O
The series can be described thus: purified protein, by the assay type. Conditions: other: wild type enzyme, maltohexose substrate, 60° C.

Substrate in series [2]: OC[C@H]1O[C@H](O[C@H]2[C@H](O)[C@@H](O)[C@@H](O[C@H]3[C@H](O)[C@@H](O)[C@@H](O[C@H]4[C@H](O)[C@@H](O)[C@@H](O[C@H]5[C@H](O)[C@@H](O)[C@@H](O[C@H]6[C@H](O)[C@@H](O)C(O)O[C@@H]6CO)O[C@@H]5CO)O[C@@H]4CO)O[C@@H]3CO)O[C@@H]2CO)[C@H](O)[C@@H](O)[C@@H]1O
Put plainly: purified protein, by the assay type. The class given is biochemical, Sulfolobus acidocaldarius. To be noted: other: mutant M140L/L202P/L218D/Y323G/F338S/I404T, maltohexose substrate, 60° C.

B1: maltooligosyl trehalose trehalohydrolase (MTHase) derived from Sulfolobus acidocaldarius, wild type (WT), SEQ ID NO.2 (Sulfolobus acidocaldarius) (protein)
chain: MFSFGGNIEKNKGIFKLWAPYVNSVKLKLSKKLIPMEKNDEGFFEVEIDDIEENLTYSYIIEDKREIPDPASRYQPLGVHDKSQLIRTDYQILDLGKVKIEDLIIYELHVGTFSQEGNFKGVIEKLDYLKDLGITGIELMPVAQFPGNRDWGYDGVFLYAVQNTYGGPWELAKLVNEAHKRGIAVILDVVYNHIGPEGNYLLGLGPYFSDRYKTPWGLTFNFDDRGCDQVRKFILENVEYWFKTFKIDGLRLDAVHAIFDNSPKHILQEIAEKAHQLGKFVIAESDLNDPKIVKDDCGYKIDAQWVDDFHHAVHAFITKEKDYYYQDFGRIEDIEKTFKDVFVYDGKYSRYRGRTHGAPVGDLPPRKFVVFIQNHDQVGNRGNGERLSILTDKTTYLMAATLYILSPYIPLIFMGEEYYETNPFFFFSDFSDPVLIKGVREGRLKENNQMIDPQSEEAFLKSKLSWKIDEEVLDYYKQLINIRKRYNNCKRVKEVRREGNCITLIMEKIGIIASFDDIVINSKITGNLLIGIGFPKKLKKDELIKVNRGVGVYQLE
B1: in series [1], the Km (commonly the substrate concentration at which the rate is half of its maximum) amounted to 3.89 ± 0.34 mM.

B2: maltooligosyl trehalose trehalohydrolase (MTHase) derived from Sulfolobus acidocaldarius (parent SEQ ID NO.2), mutant M140L/L202P/L218D/Y323G/F338S/I404T … (protein)
chain: MFSFGGNIEKNKGIFKLWAPYVNSVKLKLSKKLIPMEKNDEGFFEVEIDDIEENLTYSYIIEDKREIPDPASRYQPLGVHDKSQLIRTDYQILDLGKVKIEDLIIYELHVGTFSQEGNFKGVIEKLDYLKDLGITGIELLPVAQFPGNRDWGYDGVFLYAVQNTYGGPWELAKLVNEAHKRGIAVILDVVYNHIGPEGNYLPGLGPYFSDRYKTPWGDTFNFDDRGCDQVRKFILENVEYWFKTFKIDGLRLDAVHAIFDNSPKHILQEIAEKAHQLGKFVIAESDLNDPKIVKDDCGYKIDAQWVDDFHHAVHAFITKEKDGYYQDFGRIEDIEKTSKDVFVYDGKYSRYRGRTHGAPVGDLPPRKFVVFIQNHDQVGNRGNGERLSILTDKTTYLMAATLYTLSPYIPLIFMGEEYYETNPFFFFSDFSDPVLIKGVREGRLKENNQMIDPQSEEAFLKSKLSWKIDEEVLDYYKQLINIRKRYNNCKRVKEVRREGNCITLIMEKIGIIASFDDIVINSKITGNLLIGIGFPKKLKKDELIKVNRGVGVYQLE
notes: sextuple site-directed mutant of the 556-aa parent
Turning to B2, in series [2], the Km is given as 3.4 ± 0.94 mM.
